Experimental data from US20220135694A1, “NOVEL CD40-BINDING ANTIBODIES” (LAVA THERAPEUTICS B.V., priority 2019, published 2022).

Tests used:
CD40 = molecular target: T1, CD40 (Homo sapiens, UniProt P25942); assay: CD40 agonistic activity in primary CLL cells, 48 h, flow cytometry; format: cell-based; details: FIG. 7A-C
T1 construct: Primary chronic lymphocytic leukemia (CLL) cells express CD40 on the cell surface; endogenous in cells; host or cells: primary CLL PBMCs from untreated CLL patients
Protocol: PBMCs (≥90% CD5^+CD19^+) from untreated CLL patients were obtained and cryopreserved as described in Example 3. Thawed cells were kept in complete IMDM.
To assess whether binding of the VHH to CD40 has agonistic effects, primary CLL PBMCs were cultured for 48 hours in the presence of VHH, medium control or recombinant multimeric CD40 ligand (rmCD40L; 100 ng/mL, Bioconnect).
After 48 hours, cells were harvested, washed and incubated with AF700-conjugated anti-CD19 (557921), FITC-conjugated anti-CD80 (6109965), APC-conjugated anti-CD86 (555660, all BD Biosciences), PE-conjugated anti-CD5 (12-0059-42, Thermo Fisher Scientific) and PECy7-conjugated anti-CD95 (305621, Biolegend, San Diego, Calif., USA) antibodies for 20 minutes at 4° C. Alternatively, after 48 hours, cells were harvested and viability was measured using Mitotracker Orange (25-minute incubation at 37° C.) and To-pro-3 (10-minute incubation at room temperature; both Thermo Fisher Scientific). Samples were measured on a FACSCanto cytometer (BD Biosciences) and analyzed with Flowjo MacV10.
To assess whether binding of the VHH has agonistic effects, primary CLL PBMCs were cultured with the indicated concentrations of V19S76K-5C8, medium control or rmCD40L for 48 hours and analyzed by flow cytometry as described in Example 4.

Vγ9Vδ2-T cells = assay: Cytokine and degranulation assay: Vγ9Vδ2-T cell lines with CD40+ CII cells; format: cell-based, human; details: for degranulation of Vγ9Vδ2-T cells (CD107a): FIG. 10A
Protocol: (§1) CD40^+ CII cells and Vγ9Vδ2-T cells were grown as described in Example 7.
Vγ9Vδ2-T cell lines were incubated with V19S76K-5C8 or medium control for 30 minutes at 37° C. Subsequently, Vγ9Vδ2-T cells were cocultured with CII cells for 4 hours in a 1:1 ratio in the presence of Brefeldin A (10 μg/mL; B7651, Merck), GolgiStop (554724) and PECy7-conjugated anti-CD107a (561348, both BD Biosciences). Cells were then washed and surface staining was performed with Fixable Viability Dye eFluor506 (65-0866-14), AF700-conjugated anti-CD3 (56-0038-82, both Thermo Fisher Scientific) and FITC-conjugated anti-Vγ9-TCR (IM1463, Beckman Coulter) antibodies. Cytofix/Cytoperm reagent (554722) was used for detection of intracellular cytokines with BUV395-conjugated anti-IFN-γ (563563), […] anti-TNF-α (563418, all BD Biosciences) and PE/Dazzle594-conjugated anti-IL-2 (500343, Biolegend).
Samples were measured on an LSRFortessa cytometer (BD Biosciences) and analyzed with Flowjo MacV10.

CD19+ CLL cells = assay: Cytotoxicity of CLL cells by autologous CD3+ cells, live cell count with counting beads; format: cell-based, human; details: 10 nM, overnight, CD3+:CD19+ 10:1, autologous; FIG. 16
Protocol: PBMCs from CLL patients were obtained, cryopreserved and thawed as described in Example 3.
CD3^+ cells were isolated from CLL PBMCs using magnetic beads (purity ≥93%; 130-050-101, Miltenyi Biotec) to simultaneously enrich for Vγ9Vδ2-T cells. CD19^+ CLL cells were isolated from the same sample using magnetic beads (purity ≥93%; 130-050-301, Miltenyi Biotec). CD3^+ cells were cultured overnight with CD19^+ CLL cells in a 10:1 ratio with V19S76K-5C8 (10 nM) or medium control.
Samples were incubated with Fixable Viability Dye eF780 (65-0865-14), PerCPeF710-conjugated anti-CD3), PE-conjugated anti-CD5 (12-0059-42, all Thermo Fisher Scientific) and FITC-conjugated anti-CD20 (A07772, Beckman Coulter) antibodies. Live CLL cells were then quantified using counting beads (01-1234-42, Thermo Fisher Scientific) on a FACSCanto cytometer (BD Biosciences).

[1] = tested on: CD40-stimulated CLL cells; assay: Cytotoxicity against CLL cells cultured on 3T3 or CD40L+ 3T40L fibroblasts; format: cell-based, human; details: with Vγ9Vδ2-T cells 1:1, V19S76K-5C8 100 nM; 3T3 versus 3T40L; FIG. 14
Protocol: Primary CLL cells were obtained, cryopreserved and thawed as described in Example 3. 3T3 fibroblasts, either WT or transfected with human CD40L (3T40L), were grown in complete IMDM. Vγ9Vδ2-T cells were grown as described in Example 7.
Primary CLL cells were cultured for 72 hours on irradiated 3T3 or 3T40L fibroblasts to induce CD40 stimulation.
Cells were then harvested and cultured overnight either with venetoclax (10 nM) as described in Example 10, or with Vγ9Vδ2-T cells and V19S76K-5C8 as described in Example 12. Viability measurement and flow cytometry were performed as described in Example 10.

primary CLL cells = assay: Venetoclax sensitivity and Bcl-xL expression of rmCD40L-stimulated primary CLL cells; format: cell-based, human; details: V19S76K-5C8 1000 nM before rmCD40L 48 h
CD40+ CII target cells = assay: Cytotoxicity assay: CII target cells with Vγ9Vδ2-T cells; format: cell-based, human; details: 1:1 ratio
Protocol: as §1
CII target cells were labeled with carboxyfluorescein succinimidyl ester (CFSE; C1157, Thermo Fisher Scientific) and incubated with VHH or medium control for 30 minutes at 37° C. Target cells were then cocultured overnight with Vγ9Vδ2-T cell lines in a 1:1 ratio.
Viability was measured as described in Example 4.

T1 sequence (P25942 21-277): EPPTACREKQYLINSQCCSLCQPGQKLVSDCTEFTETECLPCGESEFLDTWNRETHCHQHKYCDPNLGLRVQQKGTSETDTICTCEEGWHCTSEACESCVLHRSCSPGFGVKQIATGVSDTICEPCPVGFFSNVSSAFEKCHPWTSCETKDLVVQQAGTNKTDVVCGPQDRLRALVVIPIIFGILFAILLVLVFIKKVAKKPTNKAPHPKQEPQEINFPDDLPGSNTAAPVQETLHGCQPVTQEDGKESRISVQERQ

B1: V19S76K-5C8: tag-less bispecific anti-CD40-anti-Vγ9Vδ2-TCR VHH, SEQ ID NO:23 (protein)
VHH: QVQLQESGGGLVQAGGSLRLSCAASGRTFGRSAMGWFRQAPGKEREFVAAIGTRGGSTKYADSVKGRFTISTDNAKNTVYLQMDSLKPEDTAVYRCAVRGPGYPSAAIFQDEYHYWGQGTQVTVSSGGGGSEVQLVESGGGLVQAGGSLRLSCAASGRPFSNYAMGWFRQAPGKEREFVAAISWSGGSTSYADSVKGRFTISRDNAKNTVYLQMNSPKPEDTAIYYCAAQFSGADYGFGRLGIRGYEYDYWGQGTQVTVSS
modifications: antibody sequence
In the case of B1, the “CD40 stimulation (expression of CD80, CD86 and CD95)” value (CD40) is reported as “none of the V19S76K-5C8 concentrations tested increased the expression of CD80, CD86 or CD95”, the “degranulation of Vγ9Vδ2-T cells (CD107a)” value (Vγ9Vδ2-T cells; CD40+ CII cells not present) is reported as “did not induce this level of degranulation” and the “degranulation of Vγ9Vδ2-T cells (CD107a)” value (Vγ9Vδ2-T cells; with CD40+ CII cells, 1:1 ratio, 4 hours) is reported as “the large majority of Vγ9Vδ2-T cells degranulated”. For the same molecule, the “IFN-γ, TNF-α and IL-2 production by Vγ9Vδ2-T cells” value (Vγ9Vδ2-T cells; with or without CD40+ CII cells, FIG. 10B-D) was “A similar pattern was observed”, the “live CLL cells versus medium control” value (CD19+ CLL cells) was “Fewer CLL cells were alive” and the “cytotoxicity in unstimulated versus CD40-stimulated CLL cells” value [1] was “induced cytotoxicity in unstimulated and CD40-stimulated CLL cells to a similar extent”. The “sensitivity to venetoclax of rmCD40L-stimulated primary CLL cells” value (primary CLL cells; then venetoclax 24 h, FIG. 9A) was “as sensitive to venetoclax as unstimulated CLL cells”, the Bcl-xL expression (primary CLL cells; FIG. 9B) was “returned to unstimulated levels” and the EC50 (CD40+ CII target cells; lysis of CII target cells with Vγ9Vδ2-T cells, FIG. 11B, read-out: half maximal effective concentration) was 9.1 µM. The “lysis of CII target cells” value (CD40+ CII target cells; overnight with Vγ9Vδ2-T cells, FIG. 11A) was “increased markedly”.
